This note sets out measurements from the supplement of paper PMC12338614.

± gives the uncertainty stated by the source.

B1: library; numbered along this chain (parent)
chain: MEVVDPQQLGMFTEGELMSVGMDTFIHRIDSTEVIYQPRRKRAKLIGKYLMGDLLGEGSYGKVKEVLDSETLCRRAVKILKKKKLRRIPNGEANVKKEIQLLRRLRHKNVIQLVDVLYNEEKQKMYMVMEYCVCGMQEMLDSVPEKRFPVCQAHGYFCQLIDGLEYLHSQGIVHKDIKPGNLLLTTGGTLKISDLGVAEALHPFAADDTCRTSQGSPAFQPPEIANGLDTFSGFKVDIWSAGVTLYNITTGLYPFEGDNIYKLFENIGKGSYAIPGDCGPPLSDLLKGMLEYEPAKRFSIRQIRQHSWFRKKHPPAEAPVPIPPSPDTKDRWRSMTVVPYLEDLHGADEDEDLFDIEDDIIYTQDFTVPGQVPEEEASHNGQRRGLPKAVCMNGTEAAQLSTKSRAEGRAPNPARKACSASSKIRRLSACKQQ

In the data set the parent is B1. Briefly: STK11 functional score (HeLa growth suppression), rescaled enrichment; synonymous median = 1, nonsense median = 0 (normalised score). The note with it: with HeLa; variant type: missense. Put shortly:
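Functional scores are post/pre-selection log ratios corrected to wild type, rescaled to synonymous and nonsense medians, merged over codons and replicate transfections, and given bootstrapped error. They come from POPCode libraries of codon-optimised STK11 integrated by Bxb1 at an AAVS1 landing pad in HeLa, three regions each transfected three times, with BFP-negative, mCherry-positive integrants sorted by FACS and tiled gDNA amplicons sequenced on NextSeq.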
For MEVVDPQQLGMFTEGELMSVGMDTFIHRIDSTEVIYQPRRKRAKLIGKYLMGDLLGEGSYGKVKEVLDSETLCRRAVKILKKKKLRRIPNGEANVKKEIQLLRRLRHKNVIQLVDVLYNEEKQKMYMVMEYCVCGMQEMLDSVPEKRFPVCQAHGYFCQLIDGLEYLHSQGIVHKDIKPGNLLLTTGGTLKISDLGVAEALHPFAADDTCRTSQGSPAFQPPEIANGLDTFSGFKVDIWSAGVTLYNITTGLYPFEGDNIYKLFENIGKGSYAIPGDCGPPLSDLLKGMLEYEPAKRFSIRQIRQHSWFRKKHPPAEAPVPIPPSPDTKDRWRSMTVVPYLEDLHGADEDEDLFDIEDDIIYTQDFTVPGQVPEEEASHNGQRRGLPKAVCMNGTEAAQLSTKSRAEGRAPNPARKACSASSKICRLSACKQQ [R425C], the STK11 functional score was found to be 1.27 ± 0.36.

For MEVVDPQQLGMFTEGELMSVGMDTFIHRIDSTEVIYQPRRKRAKLIGKYLMGDLLGEGSYGKVKEVLDSETLCRRAVKILKKKKLRRIPNGEANVKKEIQLLRRLRHKNVIQLVDVLYNEEKQKMYMVMEYCVCGMQEMLDSVPEKRFPVCQAHGYFCQLIDGLEYLHSQGIVHKDIKPGNLLLTTGGTLKISDLGVAEALHPFAADDTCRTSQGSPAFQPPEIANGLDTFSGFKVDIWSAGVTLYNITTGLYPFEGDNIYKLFENIGKGSYAIPGDCGPPLSDLLKGMLEYEPAKRFSIRQIRQHSWFRKKHPPAEAPVPIPPSPDTKDRWRSMTVVPYLEDLHGADEDEDLFDIEDDIIYTQDFTVPGQVPEEEASHNGQRRGLPKAVCMNGTEAAQLSTKSRAEGRAPNPARKACSASSKIARLSACKQQ [R425A], the STK11 functional score came to 1.59 ± 0.21.

MEVVDPQQLGMFTEGELMSVGMDTFIHRIDSTEVIYQPRRKRAKLIGKYLMGDLLGEGSYGKVKEVLDSETLCRRAVKILKKKKLRRIPNGEANVKKEIQLLRRLRHKNVIQLVDVLYNEEKQKMYMVMEYCVCGMQEMLDSVPEKRFPVCQAHGYFCQLIDGLEYLHSQGIVHKDIKPGNLLLTTGGTLKISDLGVAEALHPFAADDTCRTSQGSPAFQPPEIANGLDTFSGFKVDIWSAGVTLYNITTGLYPFEGDNIYKLFENIGKGSYAIPGDCGPPLSDLLKGMLEYEPAKRFSIRQIRQHSWFRKKHPPAEAPVPIPPSPDTKDRWRSMTVVPYLEDLHGADEDEDLFDIEDDIIYTQDFTVPGQVPEEEASHNGQRRGLPKAVCMNGTEAAQLSTKSRAEGRAPNPARKACSASSKKRRLSACKQQ [I424K]: the STK11 functional score turned out to be 1.22 ± 0.33.

Take MEVVDPQQLGMFTEGELMSVGMDTFIHRIDSTEVIYQPRRKRAKLIGKYLMGDLLGEGSYGKVKEVLDSETLCRRAVKILKKKKLRRIPNGEANVKKEIQLLRRLRHKNVIQLVDVLYNEEKQKMYMVMEYCVCGMQEMLDSVPEKRFPVCQAHGYFCQLIDGLEYLHSQGIVHKDIKPGNLLLTTGGTLKISDLGVAEALHPFAADDTCRTSQGSPAFQPPEIANGLDTFSGFKVDIWSAGVTLYNITTGLYPFEGDNIYKLFENIGKGSYAIPGDCGPPLSDLLKGMLEYEPAKRFSIRQIRQHSWFRKKHPPAEAPVPIPPSPDTKDRWRSMTVVPYLEDLHGADEDEDLFDIEDDIIYTQDFTVPGQVPEEEASHNGQRRGLPKAVCMNGTEAAQLSTKSRAEGRAPNPARKACSASSKMRRLSACKQQ [I424M]: the STK11 functional score was found to be 1.42 ± 0.38.

Turning to MEVVDPQQLGMFTEGELMSVGMDTFIHRIDSTEVIYQPRRKRAKLIGKYLMGDLLGEGSYGKVKEVLDSETLCRRAVKILKKKKLRRIPNGEANVKKEIQLLRRLRHKNVIQLVDVLYNEEKQKMYMVMEYCVCGMQEMLDSVPEKRFPVCQAHGYFCQLIDGLEYLHSQGIVHKDIKPGNLLLTTGGTLKISDLGVAEALHPFAADDTCRTSQGSPAFQPPEIANGLDTFSGFKVDIWSAGVTLYNITTGLYPFEGDNIYKLFENIGKGSYAIPGDCGPPLSDLLKGMLEYEPAKRFSIRQIRQHSWFRKKHPPAEAPVPIPPSPDTKDRWRSMTVVPYLEDLHGADEDEDLFDIEDDIIYTQDFTVPGQVPEEEASHNGQRRGLPKAVCMNGTEAAQLSTKSRAEGRAPNPARKACSASSKYRRLSACKQQ [I424Y], the STK11 functional score was 1.12 ± 0.26.

In the case of MEVVDPQQLGMFTEGELMSVGMDTFIHRIDSTEVIYQPRRKRAKLIGKYLMGDLLGEGSYGKVKEVLDSETLCRRAVKILKKKKLRRIPNGEANVKKEIQLLRRLRHKNVIQLVDVLYNEEKQKMYMVMEYCVCGMQEMLDSVPEKRFPVCQAHGYFCQLIDGLEYLHSQGIVHKDIKPGNLLLTTGGTLKISDLGVAEALHPFAADDTCRTSQGSPAFQPPEIANGLDTFSGFKVDIWSAGVTLYNITTGLYPFEGDNIYKLFENIGKGSYAIPGDCGPPLSDLLKGMLEYEPAKRFSIRQIRQHSWFRKKHPPAEAPVPIPPSPDTKDRWRSMTVVPYLEDLHGADEDEDLFDIEDDIIYTQDFTVPGQVPEEEASHNGQRRGLPKAVCMNGTEAAQLSTKSRAEGRAPNPARKACSASSKNRRLSACKQQ [I424N], the STK11 functional score worked out at 1.44 ± 0.4.

MEVVDPQQLGMFTEGELMSVGMDTFIHRIDSTEVIYQPRRKRAKLIGKYLMGDLLGEGSYGKVKEVLDSETLCRRAVKILKKKKLRRIPNGEANVKKEIQLLRRLRHKNVIQLVDVLYNEEKQKMYMVMEYCVCGMQEMLDSVPEKRFPVCQAHGYFCQLIDGLEYLHSQGIVHKDIKPGNLLLTTGGTLKISDLGVAEALHPFAADDTCRTSQGSPAFQPPEIANGLDTFSGFKVDIWSAGVTLYNITTGLYPFEGDNIYKLFENIGKGSYAIPGDCGPPLSDLLKGMLEYEPAKRFSIRQIRQHSWFRKKHPPAEAPVPIPPSPDTKDRWRSMTVVPYLEDLHGADEDEDLFDIEDDIIYTQDFTVPGQVPEEEASHNGQRRGLPKAVCMNGTEAAQLSTKSRAEGRAPNPARKACSASSKSRRLSACKQQ [I424S]: the STK11 functional score is 1.37 ± 0.2.

With MEVVDPQQLGMFTEGELMSVGMDTFIHRIDSTEVIYQPRRKRAKLIGKYLMGDLLGEGSYGKVKEVLDSETLCRRAVKILKKKKLRRIPNGEANVKKEIQLLRRLRHKNVIQLVDVLYNEEKQKMYMVMEYCVCGMQEMLDSVPEKRFPVCQAHGYFCQLIDGLEYLHSQGIVHKDIKPGNLLLTTGGTLKISDLGVAEALHPFAADDTCRTSQGSPAFQPPEIANGLDTFSGFKVDIWSAGVTLYNITTGLYPFEGDNIYKLFENIGKGSYAIPGDCGPPLSDLLKGMLEYEPAKRFSIRQIRQHSWFRKKHPPAEAPVPIPPSPDTKDRWRSMTVVPYLEDLHGADEDEDLFDIEDDIIYTQDFTVPGQVPEEEASHNGQRRGLPKAVCMNGTEAAQLSTKSRAEGRAPNPARKACSASSKQRRLSACKQQ [I424Q], the STK11 functional score was found to be 1.55 ± 0.14.

As to MEVVDPQQLGMFTEGELMSVGMDTFIHRIDSTEVIYQPRRKRAKLIGKYLMGDLLGEGSYGKVKEVLDSETLCRRAVKILKKKKLRRIPNGEANVKKEIQLLRRLRHKNVIQLVDVLYNEEKQKMYMVMEYCVCGMQEMLDSVPEKRFPVCQAHGYFCQLIDGLEYLHSQGIVHKDIKPGNLLLTTGGTLKISDLGVAEALHPFAADDTCRTSQGSPAFQPPEIANGLDTFSGFKVDIWSAGVTLYNITTGLYPFEGDNIYKLFENIGKGSYAIPGDCGPPLSDLLKGMLEYEPAKRFSIRQIRQHSWFRKKHPPAEAPVPIPPSPDTKDRWRSMTVVPYLEDLHGADEDEDLFDIEDDIIYTQDFTVPGQVPEEEASHNGQRRGLPKAVCMNGTEAAQLSTKSRAEGRAPNPARKACSASSKVRRLSACKQQ [I424V], the STK11 functional score turned out to be 1.33 ± 0.23.

With MEVVDPQQLGMFTEGELMSVGMDTFIHRIDSTEVIYQPRRKRAKLIGKYLMGDLLGEGSYGKVKEVLDSETLCRRAVKILKKKKLRRIPNGEANVKKEIQLLRRLRHKNVIQLVDVLYNEEKQKMYMVMEYCVCGMQEMLDSVPEKRFPVCQAHGYFCQLIDGLEYLHSQGIVHKDIKPGNLLLTTGGTLKISDLGVAEALHPFAADDTCRTSQGSPAFQPPEIANGLDTFSGFKVDIWSAGVTLYNITTGLYPFEGDNIYKLFENIGKGSYAIPGDCGPPLSDLLKGMLEYEPAKRFSIRQIRQHSWFRKKHPPAEAPVPIPPSPDTKDRWRSMTVVPYLEDLHGADEDEDLFDIEDDIIYTQDFTVPGQVPEEEASHNGQRRGLPKAVCMNGTEAAQLSTKSRAEGRAPNPARKACSASSKTRRLSACKQQ [I424T], the STK11 functional score worked out at 1.49 ± 0.18.

Consider MEVVDPQQLGMFTEGELMSVGMDTFIHRIDSTEVIYQPRRKRAKLIGKYLMGDLLGEGSYGKVKEVLDSETLCRRAVKILKKKKLRRIPNGEANVKKEIQLLRRLRHKNVIQLVDVLYNEEKQKMYMVMEYCVCGMQEMLDSVPEKRFPVCQAHGYFCQLIDGLEYLHSQGIVHKDIKPGNLLLTTGGTLKISDLGVAEALHPFAADDTCRTSQGSPAFQPPEIANGLDTFSGFKVDIWSAGVTLYNITTGLYPFEGDNIYKLFENIGKGSYAIPGDCGPPLSDLLKGMLEYEPAKRFSIRQIRQHSWFRKKHPPAEAPVPIPPSPDTKDRWRSMTVVPYLEDLHGADEDEDLFDIEDDIIYTQDFTVPGQVPEEEASHNGQRRGLPKAVCMNGTEAAQLSTKSRAEGRAPNPARKACSASSKLRRLSACKQQ [I424L], for which the STK11 functional score was determined as 1.34 ± 0.18.

Take MEVVDPQQLGMFTEGELMSVGMDTFIHRIDSTEVIYQPRRKRAKLIGKYLMGDLLGEGSYGKVKEVLDSETLCRRAVKILKKKKLRRIPNGEANVKKEIQLLRRLRHKNVIQLVDVLYNEEKQKMYMVMEYCVCGMQEMLDSVPEKRFPVCQAHGYFCQLIDGLEYLHSQGIVHKDIKPGNLLLTTGGTLKISDLGVAEALHPFAADDTCRTSQGSPAFQPPEIANGLDTFSGFKVDIWSAGVTLYNITTGLYPFEGDNIYKLFENIGKGSYAIPGDCGPPLSDLLKGMLEYEPAKRFSIRQIRQHSWFRKKHPPAEAPVPIPPSPDTKDRWRSMTVVPYLEDLHGADEDEDLFDIEDDIIYTQDFTVPGQVPEEEASHNGQRRGLPKAVCMNGTEAAQLSTKSRAEGRAPNPARKACSASSKGRRLSACKQQ [I424G]: the STK11 functional score was 0.657 ± 0.18.

For MEVVDPQQLGMFTEGELMSVGMDTFIHRIDSTEVIYQPRRKRAKLIGKYLMGDLLGEGSYGKVKEVLDSETLCRRAVKILKKKKLRRIPNGEANVKKEIQLLRRLRHKNVIQLVDVLYNEEKQKMYMVMEYCVCGMQEMLDSVPEKRFPVCQAHGYFCQLIDGLEYLHSQGIVHKDIKPGNLLLTTGGTLKISDLGVAEALHPFAADDTCRTSQGSPAFQPPEIANGLDTFSGFKVDIWSAGVTLYNITTGLYPFEGDNIYKLFENIGKGSYAIPGDCGPPLSDLLKGMLEYEPAKRFSIRQIRQHSWFRKKHPPAEAPVPIPPSPDTKDRWRSMTVVPYLEDLHGADEDEDLFDIEDDIIYTQDFTVPGQVPEEEASHNGQRRGLPKAVCMNGTEAAQLSTKSRAEGRAPNPARKACSASSKRRRLSACKQQ [I424R], the STK11 functional score amounted to 1.5 ± 0.17.

On to MEVVDPQQLGMFTEGELMSVGMDTFIHRIDSTEVIYQPRRKRAKLIGKYLMGDLLGEGSYGKVKEVLDSETLCRRAVKILKKKKLRRIPNGEANVKKEIQLLRRLRHKNVIQLVDVLYNEEKQKMYMVMEYCVCGMQEMLDSVPEKRFPVCQAHGYFCQLIDGLEYLHSQGIVHKDIKPGNLLLTTGGTLKISDLGVAEALHPFAADDTCRTSQGSPAFQPPEIANGLDTFSGFKVDIWSAGVTLYNITTGLYPFEGDNIYKLFENIGKGSYAIPGDCGPPLSDLLKGMLEYEPAKRFSIRQIRQHSWFRKKHPPAEAPVPIPPSPDTKDRWRSMTVVPYLEDLHGADEDEDLFDIEDDIIYTQDFTVPGQVPEEEASHNGQRRGLPKAVCMNGTEAAQLSTKSRAEGRAPNPARKACSASSKWRRLSACKQQ [I424W], for which the STK11 functional score stood at 0.789 ± 0.13.
